Experimental findings from US20240228986A1, “ENGINEERED CELLS, ENZYMES, AND METHODS FOR PRODUCING CANNABINOIDS” (priority 2021, published 2024) are described below.

In one experiment the test system is olivetolic acid. The experiment can be described thus: MPT4.1 with and without GPS1.1 fusion vs MPT4 fusion, in vivo assay (Example 5). The format is cell-based, Yarrowia. The conditions noted are these: 3 mM olivetolic acid, 48 h quench. How it is done:
As described below, plasmids pCL-SE-0337.MPT4.1 and pCL-SE-0753 were transformed into strain sCL-SE-0128. Multiple colonies per transformation were precultured for 24 h in YNB containing glucose (2%), casamino acids (0.5%), and MES (100 mM pH 6.5). Pre-culture was used to inoculate assay medium comprised of YNB containing glucose (6%), casamino acids (0.5%), MES (100 mM pH 6.5), and olivetolic acid (3 mM). Cultures were quenched with equal volume of ethanol after 48 h total growth and assayed for CBGA and FCBGA. Averages and standard deviations were calculated from replicates.
(§1) Overnight YPD (10 g/L yeast extract, 20 g/L peptone, 2% dextrose) cultures were inoculated from glycerol stocks of the appropriate strain and grown at 30° C. with 250 rpm shaking. Once cultures had reached an OD600 of 4-6, cultures were centrifuged at 500×g for 5 min, supernatants were discarded, and cell pellets were resuspended in equal volume of water. Resuspended cells were centrifuged at 500×g for 5 min, supernatants were discarded, and cells were resuspended in a volume (75 μL×OD×Vculture) of transformation cocktail (45% PEG-400, 0.1 M LiAc, 0.1 M DTT, and 25 ug/100 μL SS Salmon Sperm DNA). For each transformation, >1 μg of plasmid DNA was added to 55 μL cells/transformation cocktail and vortexed for 2 s. Transformations were incubated at 39° C. for 1 h with 250 rpm shaking. Transformations were resuspended in 750 μL YPD with 1 M sorbitol and recovered at 30° C. overnight with 250 rpm shaking. The next day, transformations were centrifuged at 500×g for 5 min, supernatants were discarded, and cell pellets were resuspended in 750 YPD. Resuspended transformations were plated on YPD with appropriate selection or YNBD (6.71 g/L yeast nitrogen base+nitrogen, 0.5% casamino acids, 2% dextrose) agar plates and grown at 30° C. for 2 days. Individual colonies were patched onto YPD plates with appropriate selection or YNBD plates and grown at 30° C. overnight. Patches were used to inoculate 0.5 mL YPD with appropriate selection or YNBD precultures in 96 w blocks and grown at 30° C. for 24-48 h with 1000 rpm shaking. For assays, 0.5 mL YPD with appropriate selection or YNBD cultures containing substrate were inoculated with 2 μL from precultures and grown at 30° C. for 2-4 days with 1000 rpm shaking with 2% glucose added every 24 h. Assay cultures were quenched by addition of 0.5 mL ethanol with 0.2% formic acid and 0.5 mg/mL pentyl-benzoic acid. Precipitates were pelleted by centrifuging at 4600×g for 10 min and then 200 μL was transferred to fresh plates, sealed, and analyzed via HPLC.
(§2) All samples were quenched with equal volume of EtOH containing 0.2 mg/mL internal standard (3,5-Diisopropyl-2-hydroxybenzoic acid CAS #2215-21-6) centrifuged, and clarified solutions were analyzed by HPLC-MS
(§3) • Column: 2.1×50 mm COSMOCORE PBr (Nacalai USA, Inc.) • Mobile Phase: A; 0.1% formic acid in water, B; 0.1% formic acid in acetonitrile • Flow: 0.45 mL/min • Temp: % 50 Celsius • Gradient: 20%B at 0 min, 70%B at 2.3 min, 89% B at 4.2 min, 20% B at 4.3 min, 20%B at 6 min

The next experiment concerns divarinic acid. Description: MPT fusions with GPS1.1 vs unfused MPTs, DVA feed (Example 9, Table 11). The format is cell-based, Yarrowia. The following applies: 2 mM divarinic acid, 2% glucose, quenched after 48 h; strain sCL-SE-0128. How it is done:
As described below, plasmids pCL-SE-0406, pCL-SE-0664, pCL-SE-0663, pCL-SE-0662, pCL-SE-0380 (MPT4), pCL-SE-0337.MPT21, were transformed into strain sCL-SE-0128. Multiple colonies per transformation were precultured for 48 h in YNB containing glucose (2%), casamino acids (0.5%), and MES (100 mM pH 6.5). Pre-culture was used to inoculate assay medium comprised of YNB containing glucose (2%), casamino acids (0.5%), MES (100 mM pH 6.5), and divarinic acid (2 mM). Cultures were quenched after 48 h total growth and assayed for CBGVA and FCBGVA. Averages and standard deviations were calculated from replicates.
as §1, §2, §3

B1: GPS1.1-F11-MPT4: fusion of GPS1.1 and MPT4 via F11 linker, SEQ ID NO: 16 (protein)
chain: MSKAKFESVFPRISEELVQLLRDEGLPQDAVQWFSDSLQYNCVGGKLNRGLSVVDTYQLLTGKKELDDEEYYRLALLGWLIELLQAFWLVSDDIMDESKTRRGQPCWYLKPKVGMIAIWDAFMLESGIYILLKKHFRQEKYYIDLVELFHDISFKTELGQLVDLLTAPEDEVDLNRFSLDKHSFIVRYKTAYYSFYLPVVLAMYVAGITNPKDLQQAMDVLIPLGEYFQVQDDYLDNFGDPEFIGKIGTDIQDNKCSWLVNKALQKATPEQRQILEDNYGVKDKSKELVIKKLYDDMKIEQDYLDYEEEVVGDIKKKIEQVDESRGFKKEVLNAFLAKIYKRQKGGAEAAAKEAAAKAGGSGGGSGGGGSGGSGGGGSGGGGSMSDNSIATKILNFGHTCWKLQRPYVVKGMISIACGLFGRELFNNRHLFSWGLMWKAFFALVPILSFNFFAAIMNQIYDVDIDRINKPDLPLVSGEMSIETAWILSIIVALTGLIVTIKLKSAPLFVFIYIFGIFAGFAYSVPPIRWKQYPFTNFLITISSHVGLAFTSYSATTSALGLPFVWRPAFSFIIAFMTVMGMTIAFAKDISDIEGDAKYGVSTVATKLGARNMTFVVSGVLLLNYLVSISIGIIWPQVFKSNIMILSHAILAFCLIFQTRELALANYASAPSRQFFEFIWLLYYAEYFVYVFI
modifications: GPS1.1-F11-MPT4, geranyl diphosphate synthase, membrane-bound prenyltransferase fusion protein
In the experiment on olivetolic acid (6% glucose, strain sCL-SE-0128), B1 returned a CBGA of 326 ± 16 µM and an FCBGA of 62 ± 2 µM. Besides, in the experiment with olivetolic acid (product ratio), the CBGA/FCBGA turned out to be 5.2. In the experiment on divarinic acid, this molecule had a CBGVA of 45 ± 2 µM and an FCBGVA of 0 ± 0 µM.
